Ki data for six molecules are collected here from patent US20210139548A1 (published 2021).

*1 amine or outer side, *2 acyl side, *3 side chain or, on linkers, in order; H or OH if unused. Side-chain parts run from the residue outwards. The star is where a group is joined. C18 diacid = O=C(O)CCCCCCCCCCCCCCCCC(=O)*; γGlu = O=C(O)[C@H](CCC(=O)[*:2])N[*:1]; Isovaleryl = CC(C)CC(=O)*; AEEA = NCCOCCOCC(=O)O

T1: human neuropeptide Y2 receptor (human, UniProt P49146 1-381)
T1 construct: whole, on cells; also called hNPY2 receptor; hNPY2-R
T1 sequence (looked up): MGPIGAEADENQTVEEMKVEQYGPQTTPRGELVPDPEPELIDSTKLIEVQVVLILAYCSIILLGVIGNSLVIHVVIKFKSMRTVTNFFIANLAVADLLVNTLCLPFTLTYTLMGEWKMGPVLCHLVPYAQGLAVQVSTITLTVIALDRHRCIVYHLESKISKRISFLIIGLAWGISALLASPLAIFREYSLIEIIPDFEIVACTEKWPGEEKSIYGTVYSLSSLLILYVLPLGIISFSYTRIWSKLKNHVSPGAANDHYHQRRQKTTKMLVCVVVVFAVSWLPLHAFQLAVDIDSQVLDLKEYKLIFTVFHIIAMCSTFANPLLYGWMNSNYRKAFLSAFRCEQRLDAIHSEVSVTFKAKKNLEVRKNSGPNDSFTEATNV

B1: Compound 34 (peptide)
peptide: Isovaleryl-APEK([AEEA-AEEA-γGlu-C18 diacid])PEEDASPEELQRYYVSTRHYYNWLTRQRY-NH2
SMILES: CC(C)CC(=O)N[C@@H](C)C(=O)N1CCC[C@H]1C(=O)N[C@@H](CCC(=O)O)C(=O)N[C@@H](CCCCNC(=O)COCCOCCNC(=O)COCCOCCNC(=O)CC[C@H](NC(=O)CCCCCCCCCCCCCCCCC(=O)O)C(=O)O)C(=O)N1CCC[C@H]1C(=O)N[C@@H](CCC(=O)O)C(=O)N[C@@H](CCC(=O)O)C(=O)N[C@@H](CC(=O)O)C(=O)N[C@@H](C)C(=O)N[C@@H](CO)C(=O)N1CCC[C@H]1C(=O)N[C@@H](CCC(=O)O)C(=O)N[C@@H](CCC(=O)O)C(=O)N[C@@H](CC(C)C)C(=O)N[C@@H](CCC(N)=O)C(=O)N[C@@H](CCCNC(=N)N)C(=O)N[C@@H](Cc1ccc(O)cc1)C(=O)N[C@@H](Cc1ccc(O)cc1)C(=O)N[C@H](C(=O)N[C@@H](CO)C(=O)N[C@H](C(=O)N[C@@H](CCCNC(=N)N)C(=O)N[C@@H](Cc1c[nH]cn1)C(=O)N[C@@H](Cc1ccc(O)cc1)C(=O)N[C@@H](Cc1ccc(O)cc1)C(=O)N[C@@H](CC(N)=O)C(=O)N[C@@H](Cc1c[nH]c2ccccc12)C(=O)N[C@@H](CC(C)C)C(=O)N[C@H](C(=O)N[C@@H](CCCNC(=N)N)C(=O)N[C@@H](CCC(N)=O)C(=O)N[C@@H](CCCNC(=N)N)C(=O)N[C@@H](Cc1ccc(O)cc1)C(N)=O)[C@@H](C)O)[C@@H](C)O)C(C)C
B2: Compound 35 (peptide)
peptide: Isovaleryl-APEK([AEEA-AEEA-γGlu-C18 diacid])PEEDAAPEETQRYYVSLRHYYNWLTRQRY-NH2
SMILES: CC(C)CC(=O)N[C@@H](C)C(=O)N1CCC[C@H]1C(=O)N[C@@H](CCC(=O)O)C(=O)N[C@@H](CCCCNC(=O)COCCOCCNC(=O)COCCOCCNC(=O)CC[C@H](NC(=O)CCCCCCCCCCCCCCCCC(=O)O)C(=O)O)C(=O)N1CCC[C@H]1C(=O)N[C@@H](CCC(=O)O)C(=O)N[C@@H](CCC(=O)O)C(=O)N[C@@H](CC(=O)O)C(=O)N[C@@H](C)C(=O)N[C@@H](C)C(=O)N1CCC[C@H]1C(=O)N[C@@H](CCC(=O)O)C(=O)N[C@@H](CCC(=O)O)C(=O)N[C@H](C(=O)N[C@@H](CCC(N)=O)C(=O)N[C@@H](CCCNC(=N)N)C(=O)N[C@@H](Cc1ccc(O)cc1)C(=O)N[C@@H](Cc1ccc(O)cc1)C(=O)N[C@H](C(=O)N[C@@H](CO)C(=O)N[C@@H](CC(C)C)C(=O)N[C@@H](CCCNC(=N)N)C(=O)N[C@@H](Cc1c[nH]cn1)C(=O)N[C@@H](Cc1ccc(O)cc1)C(=O)N[C@@H](Cc1ccc(O)cc1)C(=O)N[C@@H](CC(N)=O)C(=O)N[C@@H](Cc1c[nH]c2ccccc12)C(=O)N[C@@H](CC(C)C)C(=O)N[C@H](C(=O)N[C@@H](CCCNC(=N)N)C(=O)N[C@@H](CCC(N)=O)C(=O)N[C@@H](CCCNC(=N)N)C(=O)N[C@@H](Cc1ccc(O)cc1)C(N)=O)[C@@H](C)O)C(C)C)[C@@H](C)O
B3: Compound 40 (peptide)
peptide: Isovaleryl-APEK([AEEA-AEEA-γGlu-C18 diacid])PEEDATPEETQRYYVSLRHYYNWLTRQRY-NH2
SMILES: CC(C)CC(=O)N[C@@H](C)C(=O)N1CCC[C@H]1C(=O)N[C@@H](CCC(=O)O)C(=O)N[C@@H](CCCCNC(=O)COCCOCCNC(=O)COCCOCCNC(=O)CC[C@H](NC(=O)CCCCCCCCCCCCCCCCC(=O)O)C(=O)O)C(=O)N1CCC[C@H]1C(=O)N[C@@H](CCC(=O)O)C(=O)N[C@@H](CCC(=O)O)C(=O)N[C@@H](CC(=O)O)C(=O)N[C@@H](C)C(=O)N[C@H](C(=O)N1CCC[C@H]1C(=O)N[C@@H](CCC(=O)O)C(=O)N[C@@H](CCC(=O)O)C(=O)N[C@H](C(=O)N[C@@H](CCC(N)=O)C(=O)N[C@@H](CCCNC(=N)N)C(=O)N[C@@H](Cc1ccc(O)cc1)C(=O)N[C@@H](Cc1ccc(O)cc1)C(=O)N[C@H](C(=O)N[C@@H](CO)C(=O)N[C@@H](CC(C)C)C(=O)N[C@@H](CCCNC(=N)N)C(=O)N[C@@H](Cc1c[nH]cn1)C(=O)N[C@@H](Cc1ccc(O)cc1)C(=O)N[C@@H](Cc1ccc(O)cc1)C(=O)N[C@@H](CC(N)=O)C(=O)N[C@@H](Cc1c[nH]c2ccccc12)C(=O)N[C@@H](CC(C)C)C(=O)N[C@H](C(=O)N[C@@H](CCCNC(=N)N)C(=O)N[C@@H](CCC(N)=O)C(=O)N[C@@H](CCCNC(=N)N)C(=O)N[C@@H](Cc1ccc(O)cc1)C(N)=O)[C@@H](C)O)C(C)C)[C@@H](C)O)[C@@H](C)O
B4: Compound 42 (peptide)
peptide: Isovaleryl-APEK([AEEA-AEEA-γGlu-C18 diacid])PEEAASPEELQRYYVSTRHYYNWLTRQRY-NH2
SMILES: CC(C)CC(=O)N[C@@H](C)C(=O)N1CCC[C@H]1C(=O)N[C@@H](CCC(=O)O)C(=O)N[C@@H](CCCCNC(=O)COCCOCCNC(=O)COCCOCCNC(=O)CC[C@H](NC(=O)CCCCCCCCCCCCCCCCC(=O)O)C(=O)O)C(=O)N1CCC[C@H]1C(=O)N[C@@H](CCC(=O)O)C(=O)N[C@@H](CCC(=O)O)C(=O)N[C@@H](C)C(=O)N[C@@H](C)C(=O)N[C@@H](CO)C(=O)N1CCC[C@H]1C(=O)N[C@@H](CCC(=O)O)C(=O)N[C@@H](CCC(=O)O)C(=O)N[C@@H](CC(C)C)C(=O)N[C@@H](CCC(N)=O)C(=O)N[C@@H](CCCNC(=N)N)C(=O)N[C@@H](Cc1ccc(O)cc1)C(=O)N[C@@H](Cc1ccc(O)cc1)C(=O)N[C@H](C(=O)N[C@@H](CO)C(=O)N[C@H](C(=O)N[C@@H](CCCNC(=N)N)C(=O)N[C@@H](Cc1c[nH]cn1)C(=O)N[C@@H](Cc1ccc(O)cc1)C(=O)N[C@@H](Cc1ccc(O)cc1)C(=O)N[C@@H](CC(N)=O)C(=O)N[C@@H](Cc1c[nH]c2ccccc12)C(=O)N[C@@H](CC(C)C)C(=O)N[C@H](C(=O)N[C@@H](CCCNC(=N)N)C(=O)N[C@@H](CCC(N)=O)C(=O)N[C@@H](CCCNC(=N)N)C(=O)N[C@@H](Cc1ccc(O)cc1)C(N)=O)[C@@H](C)O)[C@@H](C)O)C(C)C
B5: Compound 36 (peptide)
peptide: Isovaleryl-APEK([AEEA-AEEA-γGlu-C18 diacid])AEEDAEPEELQRYYVSLRHYYNWLTRQRY-NH2
SMILES: CC(C)CC(=O)N[C@@H](C)C(=O)N1CCC[C@H]1C(=O)N[C@@H](CCC(=O)O)C(=O)N[C@@H](CCCCNC(=O)COCCOCCNC(=O)COCCOCCNC(=O)CC[C@H](NC(=O)CCCCCCCCCCCCCCCCC(=O)O)C(=O)O)C(=O)N[C@@H](C)C(=O)N[C@@H](CCC(=O)O)C(=O)N[C@@H](CCC(=O)O)C(=O)N[C@@H](CC(=O)O)C(=O)N[C@@H](C)C(=O)N[C@@H](CCC(=O)O)C(=O)N1CCC[C@H]1C(=O)N[C@@H](CCC(=O)O)C(=O)N[C@@H](CCC(=O)O)C(=O)N[C@@H](CC(C)C)C(=O)N[C@@H](CCC(N)=O)C(=O)N[C@@H](CCCNC(=N)N)C(=O)N[C@@H](Cc1ccc(O)cc1)C(=O)N[C@@H](Cc1ccc(O)cc1)C(=O)N[C@H](C(=O)N[C@@H](CO)C(=O)N[C@@H](CC(C)C)C(=O)N[C@@H](CCCNC(=N)N)C(=O)N[C@@H](Cc1c[nH]cn1)C(=O)N[C@@H](Cc1ccc(O)cc1)C(=O)N[C@@H](Cc1ccc(O)cc1)C(=O)N[C@@H](CC(N)=O)C(=O)N[C@@H](Cc1c[nH]c2ccccc12)C(=O)N[C@@H](CC(C)C)C(=O)N[C@H](C(=O)N[C@@H](CCCNC(=N)N)C(=O)N[C@@H](CCC(N)=O)C(=O)N[C@@H](CCCNC(=N)N)C(=O)N[C@@H](Cc1ccc(O)cc1)C(N)=O)[C@@H](C)O)C(C)C
B6: Compound 37 (peptide)
peptide: Isovaleryl-APEK([AEEA-AEEA-γGlu-C18 diacid])PEEDASPEETQRYEVSLRHYYNWLTRQRY-NH2
SMILES: CC(C)CC(=O)N[C@@H](C)C(=O)N1CCC[C@H]1C(=O)N[C@@H](CCC(=O)O)C(=O)N[C@@H](CCCCNC(=O)COCCOCCNC(=O)COCCOCCNC(=O)CC[C@H](NC(=O)CCCCCCCCCCCCCCCCC(=O)O)C(=O)O)C(=O)N1CCC[C@H]1C(=O)N[C@@H](CCC(=O)O)C(=O)N[C@@H](CCC(=O)O)C(=O)N[C@@H](CC(=O)O)C(=O)N[C@@H](C)C(=O)N[C@@H](CO)C(=O)N1CCC[C@H]1C(=O)N[C@@H](CCC(=O)O)C(=O)N[C@@H](CCC(=O)O)C(=O)N[C@H](C(=O)N[C@@H](CCC(N)=O)C(=O)N[C@@H](CCCNC(=N)N)C(=O)N[C@@H](Cc1ccc(O)cc1)C(=O)N[C@@H](CCC(=O)O)C(=O)N[C@H](C(=O)N[C@@H](CO)C(=O)N[C@@H](CC(C)C)C(=O)N[C@@H](CCCNC(=N)N)C(=O)N[C@@H](Cc1c[nH]cn1)C(=O)N[C@@H](Cc1ccc(O)cc1)C(=O)N[C@@H](Cc1ccc(O)cc1)C(=O)N[C@@H](CC(N)=O)C(=O)N[C@@H](Cc1c[nH]c2ccccc12)C(=O)N[C@@H](CC(C)C)C(=O)N[C@H](C(=O)N[C@@H](CCCNC(=N)N)C(=O)N[C@@H](CCC(N)=O)C(=O)N[C@@H](CCCNC(=N)N)C(=O)N[C@@H](Cc1ccc(O)cc1)C(N)=O)[C@@H](C)O)C(C)C)[C@@H](C)O

The assay concerns the target T1, human neuropeptide Y2 receptor. The experiment in a line: radioligand competition (125I-PYY(1-36)), hNPY2R membranes. An outline of the steps: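 Commercial human Y2 receptor membranes (0.5 μg protein/well) were incubated with peptide for 2 h at room temperature in 50 mM HEPES, 5 mM MgCl₂, 1 mM CaCl₂, pH 7.4, with 0.2% ovalbumin. Bound radioligand was separated on PEI-soaked GF/C filters and counted by scintillation, and IC₅₀ came from nonlinear sigmoidal regression.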
B1 registered a Ki of 6.4 nM.
Take B2: the affinity, expressed as Ki, was 1.21 nM.
Under B3 stands 1.21 nM; under B4, 5.92 nM; under B5, 10.6 nM.
In turn, B6 displayed a Ki of 4.85 nM. Against the preceding molecule, the Ki is about 2.2-fold lower.
